In patent US7015023:

What was measured:
[1] = molecular target: GUS alone (beta-glucuronidase) (UniProt P05804)
[2] = molecular target: GUS-YVAA-HBD fusion protein (beta-glucuronidase, Tyr-Val-Ala-Ala-Gly linker, hormone binding domain of rat glucocorticoid receptor) (UniProt P05804)
GUS-YVAA-HBD fusion protein (beta-glucuronidase, Tyr-Val-Ala-Ala-Gly linker, hormone binding domain of rat glucocorticoid receptor), sequence (P05804 other isoform, or with tags, fused parts or gaps): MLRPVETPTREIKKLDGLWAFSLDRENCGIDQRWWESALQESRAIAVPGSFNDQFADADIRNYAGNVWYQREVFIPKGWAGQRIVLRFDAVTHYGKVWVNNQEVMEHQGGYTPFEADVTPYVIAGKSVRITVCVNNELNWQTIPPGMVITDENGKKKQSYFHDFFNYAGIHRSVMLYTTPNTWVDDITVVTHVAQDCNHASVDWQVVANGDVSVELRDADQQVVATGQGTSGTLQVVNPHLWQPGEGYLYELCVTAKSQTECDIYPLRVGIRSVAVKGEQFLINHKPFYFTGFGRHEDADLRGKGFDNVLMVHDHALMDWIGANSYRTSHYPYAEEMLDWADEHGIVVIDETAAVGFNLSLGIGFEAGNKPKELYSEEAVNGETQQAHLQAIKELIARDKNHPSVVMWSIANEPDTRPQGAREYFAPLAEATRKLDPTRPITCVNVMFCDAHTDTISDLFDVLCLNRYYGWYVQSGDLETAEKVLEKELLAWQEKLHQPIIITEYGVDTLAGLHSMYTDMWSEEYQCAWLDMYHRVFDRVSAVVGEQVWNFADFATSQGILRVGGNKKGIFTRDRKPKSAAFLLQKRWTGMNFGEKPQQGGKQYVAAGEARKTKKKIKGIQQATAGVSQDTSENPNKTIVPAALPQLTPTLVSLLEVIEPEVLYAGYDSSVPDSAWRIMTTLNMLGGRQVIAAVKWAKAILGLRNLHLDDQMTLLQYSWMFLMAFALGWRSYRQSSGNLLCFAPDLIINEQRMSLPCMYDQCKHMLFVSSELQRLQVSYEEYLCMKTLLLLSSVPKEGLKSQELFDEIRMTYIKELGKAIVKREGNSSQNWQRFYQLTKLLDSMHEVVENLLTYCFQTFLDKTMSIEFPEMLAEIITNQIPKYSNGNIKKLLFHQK

GUS alone (beta-glucuronidase), sequence (P05804 whole entry, looked up, the tested form may be a part): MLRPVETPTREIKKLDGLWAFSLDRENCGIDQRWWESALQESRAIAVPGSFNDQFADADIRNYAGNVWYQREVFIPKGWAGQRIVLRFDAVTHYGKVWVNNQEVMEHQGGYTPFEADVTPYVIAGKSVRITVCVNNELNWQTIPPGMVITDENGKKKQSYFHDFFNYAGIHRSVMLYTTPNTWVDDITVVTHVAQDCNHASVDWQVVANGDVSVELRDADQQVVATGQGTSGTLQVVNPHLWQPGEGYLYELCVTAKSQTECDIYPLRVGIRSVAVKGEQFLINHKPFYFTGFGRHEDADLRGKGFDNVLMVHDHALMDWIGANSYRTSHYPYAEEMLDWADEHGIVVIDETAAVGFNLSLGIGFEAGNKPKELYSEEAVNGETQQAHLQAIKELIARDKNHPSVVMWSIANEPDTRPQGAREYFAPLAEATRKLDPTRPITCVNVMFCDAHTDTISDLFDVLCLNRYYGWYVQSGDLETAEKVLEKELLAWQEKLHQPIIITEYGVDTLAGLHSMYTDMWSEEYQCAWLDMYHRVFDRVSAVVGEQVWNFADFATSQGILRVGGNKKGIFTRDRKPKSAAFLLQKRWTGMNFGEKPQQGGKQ

purified caspase-1
proteolytic cleavage, SDS-PAGE autoradiogram of 35S-labelled protein [1]: no obvious proteolysis was detected by caspase-1 was observed with either the P1 linker mutant fusion or the GUS alone control
GUS activity of in vitro translated fusion after addition of caspase-1 [2]: no detectable increase in GUS activity is observed
proteolytic cleavage, SDS-PAGE autoradiogram of 35S-labelled protein [2]: no obvious proteolysis was detected by caspase-1 was observed with either the P1 linker mutant fusion or the GUS alone control
